From patent US20180057604A1 (Genentech, published 2018)
Residue numbers refer to the chain shown, from its start. In names and notes the source's numbering stands. Like-named read-outs stand apart in the source and are kept apart here.

Experiments:
[1] = biological target: BACE1 (HTRF long substrate and FRET short substrate assays of Example 9D); test: cell-based or functional assay
murine BACE1 ECD [2] = biological target: T1, murine BACE1 ECD; test: Octet, pH 5.0;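 note: antibodies captured on anti-human capture sensor tips, dissociation monitored in PBS with BSA buffer, kinetics fitted with a one-to-one binding model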
T1 construct: analyte of the Octet assay (200 nM) and enzyme of the first short substrate assay
T1 sequence (single chain, as listed by the source limits assumed): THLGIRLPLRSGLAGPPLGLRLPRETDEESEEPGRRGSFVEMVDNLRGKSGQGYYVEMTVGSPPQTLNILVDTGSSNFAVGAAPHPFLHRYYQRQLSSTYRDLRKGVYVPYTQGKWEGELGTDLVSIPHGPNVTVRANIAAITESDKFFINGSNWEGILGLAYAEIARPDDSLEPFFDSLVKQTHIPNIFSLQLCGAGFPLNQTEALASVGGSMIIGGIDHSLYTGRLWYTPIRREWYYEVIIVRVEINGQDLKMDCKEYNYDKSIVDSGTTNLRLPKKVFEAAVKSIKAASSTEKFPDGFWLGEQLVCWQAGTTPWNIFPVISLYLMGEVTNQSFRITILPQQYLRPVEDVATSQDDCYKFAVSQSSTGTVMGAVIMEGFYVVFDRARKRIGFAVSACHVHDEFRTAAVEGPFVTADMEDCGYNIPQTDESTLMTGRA

human BACE1 ECD [3] = biological target: T2, human BACE1 ECD; test: Octet, pH 5.0;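 note: antibodies captured on anti-human capture sensor tips, dissociation monitored in PBS with BSA buffer, kinetics fitted with a one-to-one binding model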
T2 construct: analyte of the Octet assay (200 nM) and enzyme of the first short substrate assay; also called human BACE1 extracellular domain
T2 sequence (single chain, as listed by the source limits assumed): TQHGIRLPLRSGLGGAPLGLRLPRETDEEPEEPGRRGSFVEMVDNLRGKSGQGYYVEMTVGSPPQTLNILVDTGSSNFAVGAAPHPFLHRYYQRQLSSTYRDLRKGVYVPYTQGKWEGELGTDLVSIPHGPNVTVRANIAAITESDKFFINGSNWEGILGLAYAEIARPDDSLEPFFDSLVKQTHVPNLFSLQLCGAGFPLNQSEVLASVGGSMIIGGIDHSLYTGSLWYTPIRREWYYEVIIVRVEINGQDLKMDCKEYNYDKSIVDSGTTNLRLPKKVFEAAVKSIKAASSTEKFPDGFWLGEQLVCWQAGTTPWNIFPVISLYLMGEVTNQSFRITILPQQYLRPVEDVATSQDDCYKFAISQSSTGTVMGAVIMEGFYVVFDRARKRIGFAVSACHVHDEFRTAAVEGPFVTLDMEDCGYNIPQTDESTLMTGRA

murine BACE1 ECD [4] = biological target: T1, murine BACE1 ECD; test: Octet, pH 7.5, second run
human BACE1 ECD [5] = biological target: T2, human BACE1 ECD; test: Octet, pH 7.5, second run
murine BACE1 ECD [6] = biological target: T1, murine BACE1 ECD; test: cell-based or functional assay
human BACE1 ECD [7] = biological target: T2, human BACE1 ECD; test: cell-based or functional assay
murine BACE1 ECD [8] = biological target: T1, murine BACE1 ECD; test: Octet, pH 5.0, second run
human BACE1 ECD [9] = biological target: T2, human BACE1 ECD; test: Octet, pH 5.0, second run
[10] = biological target: T3, human BACE1 (R&D Systems) (human, UniProt P56817); test: SPR (Biacore)
T3 construct: recombinant, commercial (R&D Systems)
T3 sequence (P56817 22-457 limits assumed): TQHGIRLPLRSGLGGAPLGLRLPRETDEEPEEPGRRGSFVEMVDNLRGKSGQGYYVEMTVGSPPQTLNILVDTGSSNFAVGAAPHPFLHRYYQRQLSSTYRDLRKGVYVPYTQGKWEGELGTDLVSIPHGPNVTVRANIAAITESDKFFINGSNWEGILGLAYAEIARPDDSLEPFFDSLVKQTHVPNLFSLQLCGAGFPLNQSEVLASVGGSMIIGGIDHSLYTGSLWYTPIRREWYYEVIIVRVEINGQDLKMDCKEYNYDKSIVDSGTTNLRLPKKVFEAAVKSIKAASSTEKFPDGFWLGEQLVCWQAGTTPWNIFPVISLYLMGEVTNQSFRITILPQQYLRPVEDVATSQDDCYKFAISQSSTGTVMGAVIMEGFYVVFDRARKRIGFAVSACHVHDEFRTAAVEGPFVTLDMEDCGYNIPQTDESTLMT

murine BACE1 ECD [11] = biological target: T1, murine BACE1 ECD; test: Octet, pH 7.5;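 note: antibodies captured on anti-human capture biosensor tips, dissociation followed in PBS with BSA buffer, kinetics fitted with a one-to-one binding model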
human BACE1 ECD [12] = biological target: T2, human BACE1 ECD; test: Octet, pH 7.5;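 note: antibodies captured on anti-human capture biosensor tips, dissociation followed in PBS with BSA buffer, kinetics fitted with a one-to-one binding model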
[13] = biological target: T4, BACE1 in primary mouse cortical neurons (mouse, UniProt P56818 46-501); test: cell-based or functional assay
T4 sequence (P56818 46-501): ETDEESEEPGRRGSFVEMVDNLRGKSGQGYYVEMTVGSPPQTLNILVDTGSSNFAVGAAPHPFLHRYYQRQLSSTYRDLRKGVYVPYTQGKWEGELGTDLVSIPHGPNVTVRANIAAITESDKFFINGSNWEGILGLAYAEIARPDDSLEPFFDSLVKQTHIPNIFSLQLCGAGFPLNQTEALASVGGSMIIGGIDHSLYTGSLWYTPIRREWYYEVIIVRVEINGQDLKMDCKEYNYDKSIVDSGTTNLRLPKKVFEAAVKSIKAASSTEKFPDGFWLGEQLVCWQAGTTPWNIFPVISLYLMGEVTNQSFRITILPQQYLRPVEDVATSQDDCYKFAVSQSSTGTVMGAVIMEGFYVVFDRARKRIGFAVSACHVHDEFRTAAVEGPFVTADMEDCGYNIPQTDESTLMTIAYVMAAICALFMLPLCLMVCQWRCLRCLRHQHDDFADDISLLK

[14] = biological target: T4, BACE1 in primary mouse cortical neurons; test: cell-based or functional assay; remark: listed apart in the source
[15] = biological target: T5, human TfR extracellular domain with N-terminal His tag (human, UniProt P02786 89-760); test: SPR, Fab
T5 construct: Biotinylated in some assays; also called huTfR; HuTfR
T5 sequence (P02786 89-760 G142S): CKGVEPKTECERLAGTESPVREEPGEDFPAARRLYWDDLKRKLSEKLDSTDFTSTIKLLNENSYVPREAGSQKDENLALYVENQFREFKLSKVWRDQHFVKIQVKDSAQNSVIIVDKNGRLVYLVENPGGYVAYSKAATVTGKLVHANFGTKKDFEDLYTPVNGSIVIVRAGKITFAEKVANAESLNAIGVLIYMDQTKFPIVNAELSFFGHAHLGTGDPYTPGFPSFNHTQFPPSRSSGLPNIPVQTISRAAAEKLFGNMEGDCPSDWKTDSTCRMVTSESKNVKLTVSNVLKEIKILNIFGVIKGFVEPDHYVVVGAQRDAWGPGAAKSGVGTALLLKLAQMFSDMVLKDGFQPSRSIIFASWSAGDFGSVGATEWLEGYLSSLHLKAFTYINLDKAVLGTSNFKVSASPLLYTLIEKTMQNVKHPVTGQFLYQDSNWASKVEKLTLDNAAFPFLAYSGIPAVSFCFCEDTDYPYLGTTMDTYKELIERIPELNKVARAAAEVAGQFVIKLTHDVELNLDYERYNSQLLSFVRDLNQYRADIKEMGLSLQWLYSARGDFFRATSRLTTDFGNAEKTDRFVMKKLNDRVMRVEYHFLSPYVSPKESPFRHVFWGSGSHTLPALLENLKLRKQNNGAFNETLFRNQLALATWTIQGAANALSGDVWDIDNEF

[16] = biological target: T6, cyno TfR extracellular domain (analogous construct to human TfR ecd) (cynomolgus monkey, UniProt Q5RDH6 87-760 (Pongo abelii entry)); test: SPR, Fab
T6 construct: also called cynoTfR ecd
T6 chain: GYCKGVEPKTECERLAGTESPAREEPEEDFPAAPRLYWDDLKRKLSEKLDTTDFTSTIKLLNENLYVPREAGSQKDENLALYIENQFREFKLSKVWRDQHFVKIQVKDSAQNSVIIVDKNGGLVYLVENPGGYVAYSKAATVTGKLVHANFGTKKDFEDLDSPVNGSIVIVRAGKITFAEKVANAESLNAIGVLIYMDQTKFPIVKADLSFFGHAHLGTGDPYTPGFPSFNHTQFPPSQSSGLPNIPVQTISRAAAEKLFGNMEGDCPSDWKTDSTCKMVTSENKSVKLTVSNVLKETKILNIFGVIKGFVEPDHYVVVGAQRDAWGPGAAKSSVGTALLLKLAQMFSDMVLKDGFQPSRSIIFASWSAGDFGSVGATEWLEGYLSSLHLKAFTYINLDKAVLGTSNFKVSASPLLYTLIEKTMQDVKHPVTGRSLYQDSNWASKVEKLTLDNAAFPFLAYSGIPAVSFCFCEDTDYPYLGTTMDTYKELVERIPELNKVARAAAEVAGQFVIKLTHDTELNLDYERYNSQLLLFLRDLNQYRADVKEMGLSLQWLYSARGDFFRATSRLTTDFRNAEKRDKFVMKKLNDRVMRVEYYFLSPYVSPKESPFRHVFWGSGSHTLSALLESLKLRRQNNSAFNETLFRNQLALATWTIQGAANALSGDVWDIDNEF

[17] = biological target: T5, human TfR extracellular domain with …; test: SPR, TfR captured by anti-His, Fab injected
[18] = biological target: T6, cyno TfR extracellular domain …; test: SPR, TfR captured by anti-His, Fab injected
[19] = biological target: T6, cyno TfR extracellular domain …; test: SPR, KD on cyno TfR over KD on human TfR

B1: 5894 (antibody, V domains shown)
VH: QVQLVQSGAEVKKPGSSVKVSCKASGGTFSGYAISWVRQAPGQGLEWMGNIIPGFGTANYAQKFQGRVTITADESTSTAYMELSSLRSEDTAVYYCARSGGTKYGMLDVWGQGTMVTVSS
VL: EIVMTQSPATLSVSPGERATLSCRASQSVGSNLAWYQQKPGQAPRLLIYGASTRATGIPARFSGSGSGTEFTLTISSLQSEDFAVYYCQQLYTWPPRTFGGGTKVEIK
notes: anti-BACE1 IgG
Which results are given for B1?
EC50, FRET short substrate [1]: 8.58 nM; EC50, HTRF long substrate [1]: 1.79 nM; Kd (murine BACE1 ECD [2]): 0.65 nM; Kd (human BACE1 ECD [3]): 0.3 nM; Kd (murine BACE1 ECD [4]): < 0.4 nM; Kd (human BACE1 ECD [5]): < 0.38 nM; % inhibition of BACE1 activity, short FRET substrate (murine BACE1 ECD [6]): 69%; % inhibition of BACE1 activity, short FRET substrate (human BACE1 ECD [7]): 69%; Kd (murine BACE1 ECD [8]): < 0.38 nM; Kd (human BACE1 ECD [9]): < 0.27 nM; Kd [10]: 2.95 nM; Kd (murine BACE1 ECD [11]): 0.86 nM; Kd (human BACE1 ECD [12]): 0.27 nM; IC50, Abeta x-40 in mouse cortical neurons [13]: 6.48 nM; IC50, Abeta x-40 in mouse cortical neurons (5894*, second run) [13]: 5.43 nM; maximal % inhibition of Abeta x-40 [13]: 78%

B2: 5905 (antibody, V domains shown)
VH: QLQLQESGPGLVKPSETLSLTCTVSGGSISWSSYYWSWIRQPPGKGLEWIGSIYRSGRTYYNPSLKSRVTISVDTSKNQFSLKLSSVTAADTAVYYCARVGHGISYFDLWGRGTLVTVSS
VL: B1 VL with M4L, V13L, G30S, N32Y, G50D, T53K, E70D, Q79E, S80P, L91V
notes: anti-BACE1 IgG
What does the source list for B2?
EC50, FRET short substrate [1]: 1.33 nM; EC50, HTRF long substrate [1]: 3.91 nM; Kd (murine BACE1 ECD [2]): 1.1 nM; Kd (human BACE1 ECD [3]): 1.1 nM; Kd (murine BACE1 ECD [4]): 0.4 nM; Kd (human BACE1 ECD [5]): 0.51 nM; % inhibition of BACE1 activity, short FRET substrate (murine BACE1 ECD [6]): 72%; % inhibition of BACE1 activity, short FRET substrate (human BACE1 ECD [7]): 65%; Kd (murine BACE1 ECD [8]): 0.38 nM; Kd (human BACE1 ECD [9]): 0.27 nM; IC50, Abeta x-40 in mouse cortical neurons [14]: 0.33 nM; IC50, Abeta x-40 in mouse cortical neurons (5905*, second run) [14]: 0.83 nM; maximal % inhibition of Abeta x-40 [14]: 65%; Kd [10]: 3.53 nM; Kd (murine BACE1 ECD [11]): 1.4 nM; Kd (human BACE1 ECD [12]): 1.3 nM

B3: G93A (Fab, V domains shown)
VH: EVQLVQSGAEVKKPGASVKVSCKASGYTFTSYWMHWVRQAPGQRLEWIGEINPTNGRTNYIEKFKSRATLTVDKSASTAYMELSSLRSEDTAVYYCARGTRAYHYWGQGTMVTVSS
VL: DIQMTQSPSSLSASVGDRVTITCRASDNLYSNLAWYQQKPGKSPKLLVYDATNLADGVPSRFSGSGSGTDYTLTISSLQPEDFATYYCQHFWATPLTFGQGTKVEIK
notes: also called 15G11.v5 G93A (CDR-L3) Fab
What does the source list for B3?
Kd [15]: 245 nM; Kd [16]: 1300 nM

B4: Hu15G11.HC34A Fab (Fab, V domains shown)
VH: B3 VH with M34A
VL: B3 VL with A93G
notes: Fab
Which results are given for B4?
koff [17]: 0.00403 s⁻¹; kon [17]: 564000 M⁻¹ s⁻¹; koff [18]: 0.0099 s⁻¹; kon [18]: 304000 M⁻¹ s⁻¹; Cy/hu ratio [19]: 4.6

B5: Hu15G11.HC51A Fab (Fab, V domains shown)
VH: B3 VH with I51A
VL: B3 VL with A93G
notes: Fab
For B5, which koff [17] is on record?
The koff was 0.0104 s⁻¹.

What about the kon [17] of the same binder?
Its kon is 433000 M⁻¹ s⁻¹.

And the koff [18]?
Its koff is 0.0329 s⁻¹.

And the kon [18]?
Its kon is 313000 M⁻¹ s⁻¹.

And the Cy/hu ratio [19]?
The Cy/hu ratio was 4.4.

B6: Hu15G11.HC53A Fab (Fab, V domains shown)
VH: B3 VH with T54A
VL: B3 VL with A93G
notes: Fab; also called 15G11.53A Fab
What does the source list for B6?
koff [17]: 0.0115 s⁻¹; kon [17]: 890000 M⁻¹ s⁻¹; koff [18]: 0.025 s⁻¹; kon [18]: 484000 M⁻¹ s⁻¹; Cy/hu ratio [19]: 4

B7: P95A (Fab, V domains shown)
VH: B3 VH
VL: B3 VL with A93G, P95A
notes: also called 15G11.v5 P95A (CDR-L3) Fab
B7 was tested. Which Kd [15] did it give?
Its Kd is 170 nM.

And the Kd [16]?
Its Kd is 886 nM.
